Test results from article PMC12748704.

Biological target: Cy3-labeled human histone nucleosome core particle reconstituted on the Widom 601 sequence (human) (UniProt P62807)
Assay: single-molecule fluorescence imaging on optical tweezers

Substance: HaloTag-635-LIG3α (wild type, nuclear DNA ligase IIIα) (enzyme)
- lifetime: 24 s
